Laboratory results as given in patent publication US20250327097A1, “ORGANISMS PRODUCING LESS CROTONIC ACID” (Global Bioenergies, priority 2021, published 2025).

These molecules were tested on 3-methylcrotonic acid.
Assay type: biochemical, Yersinia frederiksenii
Set-up: key: “+” representing a low increase in activity; “++++” representing a high increase in activity

| Molecule | Activity relative to WT |
| --- | --- |
| L223Y-I283T-N285P-N287T-Q290E-S322T-N388M-K394R-C430A-i430aN-L432F-L434W-S436N-dG462 (protein) MFLKSLREQINLLKRQGDLRIINRPVDSYLEAAAIIRRSTETKAPVPLMTNIKGYPGCSIVGGLAALSSNPEYPLSRVAMSLGLSTTASAQSIVQYLIDGLKKTPYLPVEIDSNSAPCKQNILRGEDASLAHFPIPQVHQHDGNRYVNTWGVFIVESPDGQWCNWSIQRVQYLNDRQMIALVFPSQHISDIWEEWVKIGKPMPYALVQGCEPIVPYIAGLPLYERNVNEAEYIGALYGKGIEVVKCETHDLRVPASSEVVIEGYFAITREGVEGPFGEFAGYTPPETSLEPILSITAISWQDDPIWPVVAEGKPVDEYHTCTGIGDAAAIQNVLLTANLPVSFVWVPLYSACHLMIVSINRHWRQTHPDLTSEQLTKKVGDVIHQTRMSIKLPRIVVLDDDVDPADTESLLWALATRIHPERKRYFYESAIFPWLNCYSEEERHNRKGKRVIIDALLPENHGAISSFDYAYPDDIKQRVLMHWETDFSHD | ++++ |
| I283T-N285P-N287T-Q290E-S322T-N388M-K394R-C430A-i430aG-L432F-L434W-S436N-V451S-dG462 (protein) MFLKSLREQINLLKRQGDLRIINRPVDSYLEAAAIIRRSTETKAPVPLMTNIKGYPGCSIVGGLAALSSNPEYPLSRVAMSLGLSTTASAQSIVQYLIDGLKKTPYLPVEIDSNSAPCKQNILRGEDASLAHFPIPQVHQHDGNRYVNTWGVFIVESPDGQWCNWSIQRVQYLNDRQMIALVFPSQHISDIWEEWVKIGKPMPYALVQGCEPIVPYIAGLPLLERNVNEAEYIGALYGKGIEVVKCETHDLRVPASSEVVIEGYFAITREGVEGPFGEFAGYTPPETSLEPILSITAISWQDDPIWPVVAEGKPVDEYHTCTGIGDAAAIQNVLLTANLPVSFVWVPLYSACHLMIVSINRHWRQTHPDLTSEQLTKKVGDVIHQTRMSIKLPRIVVLDDDVDPADTESLLWALATRIHPERKRYFYESAIFPWLNCYSEEERHNRKGKRSIIDALLPENHGAISSFDYAYPDDIKQRVLMHWETDFSHD | ++++ |
| H141C-I283T-N285P-N287T-Q290E-S322T-N388M-K394R-C430A-i430aG-L432F-L434W-S436N-dG462 (protein) MFLKSLREQINLLKRQGDLRIINRPVDSYLEAAAIIRRSTETKAPVPLMTNIKGYPGCSIVGGLAALSSNPEYPLSRVAMSLGLSTTASAQSIVQYLIDGLKKTPYLPVEIDSNSAPCKQNILRGEDASLAHFPIPQVHQCDGNRYVNTWGVFIVESPDGQWCNWSIQRVQYLNDRQMIALVFPSQHISDIWEEWVKIGKPMPYALVQGCEPIVPYIAGLPLLERNVNEAEYIGALYGKGIEVVKCETHDLRVPASSEVVIEGYFAITREGVEGPFGEFAGYTPPETSLEPILSITAISWQDDPIWPVVAEGKPVDEYHTCTGIGDAAAIQNVLLTANLPVSFVWVPLYSACHLMIVSINRHWRQTHPDLTSEQLTKKVGDVIHQTRMSIKLPRIVVLDDDVDPADTESLLWALATRIHPERKRYFYESAIFPWLNCYSEEERHNRKGKRVIIDALLPENHGAISSFDYAYPDDIKQRVLMHWETDFSHD | ++++ |
| L222V-I283T-N285P-N287T-Q290E-S322T-N388M-K394R-C430A-i430aG-L432F-L434W-S436N-dG462 (protein) MFLKSLREQINLLKRQGDLRIINRPVDSYLEAAAIIRRSTETKAPVPLMTNIKGYPGCSIVGGLAALSSNPEYPLSRVAMSLGLSTTASAQSIVQYLIDGLKKTPYLPVEIDSNSAPCKQNILRGEDASLAHFPIPQVHQHDGNRYVNTWGVFIVESPDGQWCNWSIQRVQYLNDRQMIALVFPSQHISDIWEEWVKIGKPMPYALVQGCEPIVPYIAGLPVLERNVNEAEYIGALYGKGIEVVKCETHDLRVPASSEVVIEGYFAITREGVEGPFGEFAGYTPPETSLEPILSITAISWQDDPIWPVVAEGKPVDEYHTCTGIGDAAAIQNVLLTANLPVSFVWVPLYSACHLMIVSINRHWRQTHPDLTSEQLTKKVGDVIHQTRMSIKLPRIVVLDDDVDPADTESLLWALATRIHPERKRYFYESAIFPWLNCYSEEERHNRKGKRVIIDALLPENHGAISSFDYAYPDDIKQRVLMHWETDFSHD | ++++ |
| I283T-N285P-N287T-Q290E-S322T-I330V-N388M-K394R-C430A-i430aG-L432F-L434W-S436N-dG462 (protein) MFLKSLREQINLLKRQGDLRIINRPVDSYLEAAAIIRRSTETKAPVPLMTNIKGYPGCSIVGGLAALSSNPEYPLSRVAMSLGLSTTASAQSIVQYLIDGLKKTPYLPVEIDSNSAPCKQNILRGEDASLAHFPIPQVHQHDGNRYVNTWGVFIVESPDGQWCNWSIQRVQYLNDRQMIALVFPSQHISDIWEEWVKIGKPMPYALVQGCEPIVPYIAGLPLLERNVNEAEYIGALYGKGIEVVKCETHDLRVPASSEVVIEGYFAITREGVEGPFGEFAGYTPPETSLEPILSITAISWQDDPIWPVVAEGKPVDEYHTCTGIGDAAAVQNVLLTANLPVSFVWVPLYSACHLMIVSINRHWRQTHPDLTSEQLTKKVGDVIHQTRMSIKLPRIVVLDDDVDPADTESLLWALATRIHPERKRYFYESAIFPWLNCYSEEERHNRKGKRVIIDALLPENHGAISSFDYAYPDDIKQRVLMHWETDFSHD | ++++ |
| L223Y-I283T-N285P-N287T-Q290E-S322T-N388M-K394R-C430A-i430aL-L432F-L434W-S436N-dG462 (protein) MFLKSLREQINLLKRQGDLRIINRPVDSYLEAAAIIRRSTETKAPVPLMTNIKGYPGCSIVGGLAALSSNPEYPLSRVAMSLGLSTTASAQSIVQYLIDGLKKTPYLPVEIDSNSAPCKQNILRGEDASLAHFPIPQVHQHDGNRYVNTWGVFIVESPDGQWCNWSIQRVQYLNDRQMIALVFPSQHISDIWEEWVKIGKPMPYALVQGCEPIVPYIAGLPLYERNVNEAEYIGALYGKGIEVVKCETHDLRVPASSEVVIEGYFAITREGVEGPFGEFAGYTPPETSLEPILSITAISWQDDPIWPVVAEGKPVDEYHTCTGIGDAAAIQNVLLTANLPVSFVWVPLYSACHLMIVSINRHWRQTHPDLTSEQLTKKVGDVIHQTRMSIKLPRIVVLDDDVDPADTESLLWALATRIHPERKRYFYESAIFPWLNCYSEEERHNRKGKRVIIDALLPENHGAISSFDYAYPDDIKQRVLMHWETDFSHD | ++++ |
| L223Y-I283T-N285P-N287T-Q290E-S322T-N388M-K394R-C430A-L432F-L434W-S436N-C437L-dG462 (protein) MFLKSLREQINLLKRQGDLRIINRPVDSYLEAAAIIRRSTETKAPVPLMTNIKGYPGCSIVGGLAALSSNPEYPLSRVAMSLGLSTTASAQSIVQYLIDGLKKTPYLPVEIDSNSAPCKQNILRGEDASLAHFPIPQVHQHDGNRYVNTWGVFIVESPDGQWCNWSIQRVQYLNDRQMIALVFPSQHISDIWEEWVKIGKPMPYALVQGCEPIVPYIAGLPLYERNVNEAEYIGALYGKGIEVVKCETHDLRVPASSEVVIEGYFAITREGVEGPFGEFAGYTPPETSLEPILSITAISWQDDPIWPVVAEGKPVDEYHTCTGIGDAAAIQNVLLTANLPVSFVWVPLYSACHLMIVSINRHWRQTHPDLTSEQLTKKVGDVIHQTRMSIKLPRIVVLDDDVDPADTESLLWALATRIHPERKRYFYESAIFPWLNLYSEEERHNRKGKRVIIDALLPENHGAISSFDYAYPDDIKQRVLMHWETDFSHD | ++++ |
